Results on two substances are retold here after paper PMC4846058.

One assay has as its target ixekizumab (human). The assay can be described thus: SPR. Background: In SPR one partner is held on a chip, and binding of the other changes the refractive index at the surface.
Assay [1] has as its target cynomolgus monkey IL-17A (Macaca fascicularis). The assay can be described thus: SPR.

In the assay with ixekizumab (human), rabbit IL-17A (ligand) yielded a KD, heterogeneous ligand model, first set of 1.3 nM; a KD, heterogeneous ligand model, second set of 14 nM; a koff, heterogeneous ligand model, first set of 0.00017 s⁻¹; a koff, heterogeneous ligand model, second set of 0.11 s⁻¹. In addition, the kon, heterogeneous ligand model, first set in the assay with ixekizumab (human) is 150000 M⁻¹ s⁻¹.

For orientation: Kd means the constant that tells how readily two partners part at equilibrium. As for ixekizumab (antibody), the Kd in assay [1] amounted to 0.0008 nM.
